US20240132615A1 (ICHNOS SCIENCES, published 2024)
Where a chain is given by its changes, count along the chain named. One block for each binder: values may come before it.

Columns and labels:
[1] = target: T1, recombinant cynomolgus monkey CD38-ECD-C-his protein (cynomolgus monkey, UniProt Q5VAN0 45-301); test: SPR, Fab as analyte, captured cynomolgus CD38-his
T1 construct: made in house; Q5VAN0 residues 43-301 (residue 44 deleted) with C-terminal 6-His; also called cynomolgus monkey CD38-C-His; recombinant cynomolgus monkey CD38 protein

[2] = target: T2, Biotinylated Human CD38 Protein, Avitag, His Tag (Acrobiosystems CD8-H82E7) (human, UniProt P28907 43-300, biotinylated); test: SPR, Fab as analyte, immobilised biotinylated human CD38;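 also: biacore T200 at 25 °C, single-cycle kinetics with Fab from 7.8 to 2000 nM, 3 min association then 5 min dissociation, fitted with a 1:1 Langmuir model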
T2 construct: bought protein; also called biotinylated recombinant human CD38 protein; human CD38-avi-his

[3] = target: T3, human CD3 on cells (HPB-ALL cells, primary human T cells) (human, UniProt P07766 23-207); test: flow cytometry, human CD4+ T cells
T3 construct: whole, on cells; only the epsilon chain is written
T3 sequence (P07766 23-207): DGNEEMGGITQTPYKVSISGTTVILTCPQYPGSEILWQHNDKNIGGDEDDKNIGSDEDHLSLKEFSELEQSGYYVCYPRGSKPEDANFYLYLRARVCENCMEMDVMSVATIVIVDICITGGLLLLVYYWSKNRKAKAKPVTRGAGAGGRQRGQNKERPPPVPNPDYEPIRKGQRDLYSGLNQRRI

- Kd [1]: 33.5 nM
- Kd [2]: 192 nM
B1: Anti-CD38-UCP02-D5 Fab (Fab, V domains shown)
VH: QVQLVQSGAEVKKPGSSVKVSCKASGGIFSVHAIHWVRQAPGQGLEWMGEIIPVIGEADYAQKFQGRVTITADESTSTAYMELSSLRSEDTAVYYCAREQYYYALGGGFDYWGQGTLVTVSS
VL: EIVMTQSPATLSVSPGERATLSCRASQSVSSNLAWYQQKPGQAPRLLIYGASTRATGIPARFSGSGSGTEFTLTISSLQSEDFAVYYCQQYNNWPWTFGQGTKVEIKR
notes: Fab

- Kd [1]: 829 nM
- Kd [2]: 225 nM
B2: Anti-CD38-UCP03-B6 Fab (Fab, V domains shown)
VH: QVQLVQSGAEVKKPGSSVKVSCKASGGHISNSAINWVRQAPGQGLEWMGRVIPVIDDAYYAQKFQGRVTITADESTSTAYMELSSLRSEDTAVYYCARSRGYYGSFYFDIWGQGTLVTVSS
VL: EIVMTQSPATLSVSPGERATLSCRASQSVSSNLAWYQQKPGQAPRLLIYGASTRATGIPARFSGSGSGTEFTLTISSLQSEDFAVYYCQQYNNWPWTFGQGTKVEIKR
notes: Fab

- Kd [1]: 672 nM
- Kd [2]: 1850 nM
B3: Anti-CD38-UCP03-H2 Fab (Fab, V domains shown)
VH: QVQLVQSGAEVKKPGSSVKVSCKASGGEFSIYVISWVRQAPGQGLEWMGRVIPSTGDTNYAQKFQGRVTITADESTSTAYMELSSLRSEDTAVYYCARGKAYYSGWLAIWGQGTLVTVSS
VL: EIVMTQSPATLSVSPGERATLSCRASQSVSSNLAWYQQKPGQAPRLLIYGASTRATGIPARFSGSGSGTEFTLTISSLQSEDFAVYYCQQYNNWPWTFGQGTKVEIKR
notes: Fab

- Kd [1]: 393 nM
- Kd [2]: 429 nM
B4: Anti-CD38-UCP01-F1 Fab (Fab, V domains shown)
VH: QVQLVQSGAEVKKPGSSVKVSCKASGGVFSLYTITWVRQAPGQGLEWMGSIIPLLGDPEYAQKFQGRVTITADESTSTAYMELSSLRSEDTAVYYCARYPYPYGSKYFDIWGQGTLVTVSS
VL: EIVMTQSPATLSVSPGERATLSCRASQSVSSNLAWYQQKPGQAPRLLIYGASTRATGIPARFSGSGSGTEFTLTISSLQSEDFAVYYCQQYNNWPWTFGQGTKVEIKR
notes: Fab

- Kd [1]: 178 nM
- Kd [2]: 810 nM
B5: Anti-CD38-UCP03-H3 Fab (Fab, V domains shown)
VH: QVQLVQSGAEVKKPGSSVKVSCKASGGVFSQFPISWVRQAPGQGLEWMGGIIAGYGATEYAQKFQGRVTITADESTSTAYMELSSLRSEDTAVYYCARVYGGIDWGQGTLVTVSS
VL: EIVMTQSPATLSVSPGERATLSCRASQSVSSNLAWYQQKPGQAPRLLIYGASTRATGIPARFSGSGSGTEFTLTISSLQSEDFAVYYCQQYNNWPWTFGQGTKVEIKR
notes: Fab

- Kd [1]: 352 nM
- Kd [2]: 437 nM
B6: Anti-CD38-UCP01-H1 Fab (Fab, V domains shown)
VH: QVQLVQSGAEVKKPGSSVKVSCKASGDFFSGYAINWVRQAPGQGLEWMGRIIPLLGDTYYAQKFQGRVTITADESTSTAYMELSSLRSEDTAVYYCARSAAGWFAYWGQGTLVTVSS
VL: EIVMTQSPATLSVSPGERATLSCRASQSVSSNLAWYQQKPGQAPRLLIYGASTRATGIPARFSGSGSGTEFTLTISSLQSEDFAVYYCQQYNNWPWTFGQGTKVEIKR
notes: Fab

- Kd [1]: 465 nM
- Kd [2]: 117 nM
B7: Anti-CD38-UCP03-C3 Fab (Fab, V domains shown)
VH: QVQLVQSGAEVKKPGSSVKVSCKASGGKFSNYAISWVRQAPGQGLEWMGRIIPQIGDAAYAQKFQGRVTITADESTSTAYMELSSLRSEDTAVYYCARASFLYYSYYFDYWGQGTLVTVSS
VL: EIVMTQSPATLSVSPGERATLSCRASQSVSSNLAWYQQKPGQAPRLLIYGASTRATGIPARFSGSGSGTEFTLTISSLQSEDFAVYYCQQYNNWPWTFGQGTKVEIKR
notes: Fab

- Kd [1]: 188 nM
- Kd [2]: 305 nM
B8: Anti-CD38-UCP02-C3 Fab (Fab, V domains shown)
VH: QVQLVQSGAEVKKPGSSVKVSCKASGDYFNNYAINWVRQAPGQGLEWMGRIIPFLDDANYAQKFQGRVTITADESTSTAYMELSSLRSEDTAVYYCARATSPLYSYYFDYWGQGTLVTVSS
VL: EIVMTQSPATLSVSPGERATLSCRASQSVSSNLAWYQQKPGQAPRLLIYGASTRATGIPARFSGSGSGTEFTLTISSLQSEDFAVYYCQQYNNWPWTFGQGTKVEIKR
notes: Fab

- Kd [1]: 628 nM
- Kd [2]: 1390 nM
B9: Anti-CD38-UCP03-C2 Fab (Fab, V domains shown)
VH: B7 VH with K28T, R50G, Q54A, I55F, A59G, A99G, S100R, F101V
VL: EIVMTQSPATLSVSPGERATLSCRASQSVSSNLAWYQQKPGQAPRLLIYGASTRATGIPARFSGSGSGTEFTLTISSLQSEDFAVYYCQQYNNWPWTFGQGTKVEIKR
notes: Fab

- Kd [1]: 89 nM
- Kd [2]: 110 nM
B10: Anti-CD38-UCP01-E2 FAB (Fab, V domains shown)
VH: QVQLVQSGAEVKKPGSSVKVSCKASGGSFSNYAIGWVRQAPGQGLEWMGRIIPVFGSAHYAQKFQGRVTITADESTSTAYMELSSLRSEDTAVYYCARGLGYYLYSSYYFDIWGQGTLVTVSS
VL: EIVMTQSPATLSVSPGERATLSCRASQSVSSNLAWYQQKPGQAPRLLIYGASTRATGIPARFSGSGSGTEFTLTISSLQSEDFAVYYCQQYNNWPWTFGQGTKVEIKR
notes: Fab; also called anti-CD38-E2; anti-CD38-E2 Fab

- Kd [1]: 14 nM
- Kd [2]: 14.2 nM
B11: Anti-CD38-UCP02-F2 Fab (Fab, V domains shown)
VH: QVQLVQSGAEVKKPGSSVKVSCKASGDVFSLLAIGWVRQAPGQGLEWMGRIIPSLDATHYAQKFQGRVTITADESTSTAYMELSSLRSEDTAVYYCARGRDVLRSYYFDIWGQGTLVTVSS
VL: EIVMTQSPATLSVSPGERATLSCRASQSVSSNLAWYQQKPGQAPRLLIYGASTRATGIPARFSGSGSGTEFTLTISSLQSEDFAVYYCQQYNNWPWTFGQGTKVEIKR
notes: Fab

- Kd [1]: 283 nM
- Kd [2]: 1120 nM
B12: Anti-CD38-UCP01-G1 Fab (Fab, V domains shown)
VH: QVQLVQSGAEVKKPGSSVKVSCKASGGGFSKYFITWVRQAPGQGLEWMGGVIPKIGYTSYAQKFQGRVTITADESTSTAYMELSSLRSEDTAVYYCARGSDDYASYSPLDSWGQGTLVTVSS
VL: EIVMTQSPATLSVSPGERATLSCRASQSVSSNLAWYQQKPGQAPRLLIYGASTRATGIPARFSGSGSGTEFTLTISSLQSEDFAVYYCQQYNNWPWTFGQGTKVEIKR
notes: Fab

- Kd [1]: 55.2 nM
- Kd [2]: 71.1 nM
B13: Anti-CD38-UCP02-F5 Fab (Fab, V domains shown)
VH: QVQLVQSGAEVKKPGSSVKVSCKASGGVFSYYTISWVRQAPGQGLEWMGRIIPSLGATHYAQKFQGRVTITADESTSTAYMELSSLRSEDTAVYYCARSDSFYYAYYMDLWGQGTLVTVSS
VL: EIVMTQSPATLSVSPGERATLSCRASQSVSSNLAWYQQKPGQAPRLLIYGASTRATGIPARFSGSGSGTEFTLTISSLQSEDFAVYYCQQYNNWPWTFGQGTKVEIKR
notes: Fab

- Kd [1]: 102 nM
- Kd [2]: 193 nM
B14: Anti-CD38-UCP01-B1 Fab (Fab, V domains shown)
VH: QVQLVQSGAEVKKPGSSVKVSCKASGGDFDQYYISWVRQAPGQGLEWMGRIIPTLGDSQYAQKFQGRVTITADESTSTAYMELSSLRSEDTAVYYCARAVIVSPYYYIYVFDVWGQGTLVTVSS
VL: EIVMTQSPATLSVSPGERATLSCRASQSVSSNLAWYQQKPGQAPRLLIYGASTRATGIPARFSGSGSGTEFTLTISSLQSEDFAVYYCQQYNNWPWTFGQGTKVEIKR
notes: Fab

- Kd [1]: 78 nM
- Kd [2]: 133 nM
B15: Anti-CD38-UCP02-D1 Fab (Fab, V domains shown)
VH: B14 VH
VL: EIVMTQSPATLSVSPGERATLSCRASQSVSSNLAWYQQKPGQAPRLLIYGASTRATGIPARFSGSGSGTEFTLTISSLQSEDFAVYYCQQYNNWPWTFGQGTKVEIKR
notes: Fab

- Kd [1]: 195 nM
- Kd [2]: 300 nM
B16: Anti-CD38-UCP03-E3 Fab (Fab, V domains shown)
VH: QVQLVQSGAEVKKPGSSVKVSCKASGGSFSIYAISWVRQAPGQGLEWMGGIIPNSGDTDYAQKFQGRVTITADESTSTAYMELSSLRSEDTAVYYCARGPYDSYGESYFDYWGQGTLVTVSS
VL: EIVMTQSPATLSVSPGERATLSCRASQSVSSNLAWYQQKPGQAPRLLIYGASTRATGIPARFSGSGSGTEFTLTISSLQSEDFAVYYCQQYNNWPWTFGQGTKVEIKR
notes: Fab

- Kd [1]: 2.7 nM
- Kd [2]: 154 nM
B17: Anti-CD38-UCP02-H1 Fab (Fab, V domains shown)
VH: QVQLVQSGAEVKKPGSSVKVSCKASGDKFNTYAISWVRQAPGQGLEWMGGITPRYDYAHYAQKFQGRVTITADESTSTAYMELSSLRSEDTAVYYCARSWGFRAGYLDYWGQGTLVTVSS
VL: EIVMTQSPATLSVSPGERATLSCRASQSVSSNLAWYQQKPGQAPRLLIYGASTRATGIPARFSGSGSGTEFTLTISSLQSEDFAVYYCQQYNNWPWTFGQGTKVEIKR
notes: Fab

- Kd [1]: 525 nM
- Kd [2]: 410 nM
B18: Anti-CD38-UCP03-A6 Fab (Fab, V domains shown)
VH: QVQLVQSGAEVKKPGSSVKVSCKASGGDFSLYAISWVRQAPGQGLEWMGGIIPLLGEPVYAQKFQGRVTITADESTSTAYMELSSLRSEDTAVYYCARGHRVYSSSPFDYWGQGTLVTVSS
VL: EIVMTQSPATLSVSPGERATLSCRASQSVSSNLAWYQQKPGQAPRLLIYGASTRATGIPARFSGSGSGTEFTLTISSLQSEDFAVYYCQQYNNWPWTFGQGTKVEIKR
notes: Fab

- binding result [1]: no binding
- Kd [2]: 666 nM
B19: Anti-CD38-UCP01-D1 Fab (Fab, V domains shown)
VH: QVQLVQSGAEVKKPGSSVKVSCKASGGIFNGYLISWVRQAPGQGLEWMGGIIPVNGLADYAQKFQGRVTITADESTSTAYMELSSLRSEDTAVYYCARTIGRYIIAFDYWGQGTLVTVSS
VL: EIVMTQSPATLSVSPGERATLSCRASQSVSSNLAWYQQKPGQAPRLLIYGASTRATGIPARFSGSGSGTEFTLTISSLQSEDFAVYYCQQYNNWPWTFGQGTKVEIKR
notes: Fab

- Kd [1]: 53.5 nM
- Kd [2]: 85.3 nM
B20: Anti-CD38-UCP01-C2 Fab (Fab, V domains shown)
VH: QVQLVQSGAEVKKPGSSVKVSCKASGGYLGIYAISWVRQAPGQGLEWMGRIIPILGEADYAQKFQGRVTITADESTSTAYMELSSLRSEDTAVYYCARGGVWWDYWGQGTLVTVSS
VL: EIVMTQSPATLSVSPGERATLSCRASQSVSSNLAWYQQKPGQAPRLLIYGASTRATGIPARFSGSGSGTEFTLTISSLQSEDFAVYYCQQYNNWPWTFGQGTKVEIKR
notes: Fab

- Kd [1]: 11 nM
- Kd [2]: 142 nM
B21: Anti-CD38-UCP03-H5 Fab (Fab, V domains shown)
VH: QVQLVQSGAEVKKPGSSVKVSCKASGGLFSFYAISWVRQAPGQGLEWMGGIIPFFGEPQYAQKFQGRVTITADESTSTAYMELSSLRSEDTAVYYCARGSYRFDVWGQGTLVTVSA
VL: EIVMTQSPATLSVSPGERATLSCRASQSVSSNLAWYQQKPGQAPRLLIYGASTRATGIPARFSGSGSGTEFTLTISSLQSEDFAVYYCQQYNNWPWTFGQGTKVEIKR
notes: Fab

- MFI at 800 nM [3]: 133000 MFI
B22: Anti-CD3-C1-UCP01-H9 IgG1LALA (antibody, V domains shown)
VH: QVQLVQSGAEVKKPGSSVKVSCKASGGKFSRYAISWVRQAPGQGLEWMGGISPHVGYAEYAQKFQGRVTITADESTSTAYMELSSLRSEDTAVYYCARYGYSLYMDIWGQGTLVTVSS
VL: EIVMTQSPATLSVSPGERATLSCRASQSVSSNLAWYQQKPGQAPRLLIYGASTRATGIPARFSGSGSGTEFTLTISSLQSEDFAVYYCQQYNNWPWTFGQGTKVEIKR
notes: IgG1 LALA

- MFI at 800 nM [3]: 126000 MFI
B23: Anti-CD3-C1-UCP01-D4 IgG1LALA (antibody, V domains shown)
VH: B22 VH with S52N, H54I, V55R, Y57R, A58P, E59S
VL: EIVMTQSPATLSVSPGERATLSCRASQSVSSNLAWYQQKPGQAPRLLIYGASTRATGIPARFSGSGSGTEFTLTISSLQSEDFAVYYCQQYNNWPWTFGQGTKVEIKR
notes: IgG1 LALA

- MFI at 800 nM [3]: 108000 MFI
B24: Anti-CD3-C1-UCP01-F12 IgG1LALA (antibody, V domains shown)
VH: B22 VH with H54F, V55R, Y57H
VL: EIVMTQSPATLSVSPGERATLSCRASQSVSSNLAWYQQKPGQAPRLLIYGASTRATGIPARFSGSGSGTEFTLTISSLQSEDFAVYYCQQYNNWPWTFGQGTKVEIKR
notes: IgG1 LALA

- MFI at 800 nM [3]: 82800 MFI
B25: Anti-CD3-C1-UCP01-E7 IgG1LALA (antibody, V domains shown)
VH: B22 VH with S52N, V55L, Y57E
VL: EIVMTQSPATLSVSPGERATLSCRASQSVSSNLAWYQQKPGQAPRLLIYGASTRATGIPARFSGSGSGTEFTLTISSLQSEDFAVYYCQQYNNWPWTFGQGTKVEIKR
notes: IgG1 LALA

- MFI at 800 nM [3]: 149000 MFI
B26: Anti-CD3-C1-UCP01-E12 IgG1LALA (antibody, V domains shown)
VH: B22 VH with S52N, H54L, Y57H
VL: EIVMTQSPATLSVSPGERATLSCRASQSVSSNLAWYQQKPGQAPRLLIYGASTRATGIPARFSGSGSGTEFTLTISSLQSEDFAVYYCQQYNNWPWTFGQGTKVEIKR
notes: IgG1 LALA; also called anti-CD3-C1-E12

- MFI at 800 nM [3]: 121000 MFI
B27: Anti-CD3-C1-UCP01-G12 IgG1LALA (antibody, V domains shown)
VH: B22 VH with E10K, V55I, Y57H, A58P
VL: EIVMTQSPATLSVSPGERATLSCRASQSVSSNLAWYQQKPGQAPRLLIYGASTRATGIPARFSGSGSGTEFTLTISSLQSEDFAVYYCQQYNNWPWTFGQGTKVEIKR
notes: IgG1 LALA

- MFI at 800 nM [3]: 100000 MFI
B28: Anti-CD3-C1-UCP01-E10 IgG1LALA (antibody, V domains shown)
VH: B22 VH with H54F, V55E, Y57T, A58P, E59A
VL: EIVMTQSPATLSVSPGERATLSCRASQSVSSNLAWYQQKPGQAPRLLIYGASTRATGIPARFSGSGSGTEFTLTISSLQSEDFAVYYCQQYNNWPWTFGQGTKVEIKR
notes: IgG1 LALA; also called anti-CD3-C1-E10

- MFI at 800 nM [3]: 150000 MFI
B29: Anti-CD3-C1-UCP01-F10 IgG1LALA (antibody, V domains shown)
VH: B22 VH with S52N, V55I, G56R, Y57F, A58P
VL: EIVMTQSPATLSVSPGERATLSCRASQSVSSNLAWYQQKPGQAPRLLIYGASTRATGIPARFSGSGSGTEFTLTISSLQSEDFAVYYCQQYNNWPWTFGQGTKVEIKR
notes: IgG1 LALA; also called anti-CD3-C1-F10

- MFI at 800 nM [3]: 91800 MFI
B30: Anti-CD3-C1-UCP01-E11 IgG1LALA (antibody, V domains shown)
VH: B22 VH with S52N, H54F, V55K, Y57D
VL: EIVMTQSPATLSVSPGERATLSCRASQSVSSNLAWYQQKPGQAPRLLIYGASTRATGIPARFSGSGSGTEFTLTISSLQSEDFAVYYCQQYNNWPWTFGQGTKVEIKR
notes: IgG1 LALA

- MFI at 800 nM [3]: 119000 MFI
B31: Anti-CD3-C1-UCP01-C11 IgG1LALA (antibody, V domains shown)
VH: B22 VH with S52N, Y57A, A58P
VL: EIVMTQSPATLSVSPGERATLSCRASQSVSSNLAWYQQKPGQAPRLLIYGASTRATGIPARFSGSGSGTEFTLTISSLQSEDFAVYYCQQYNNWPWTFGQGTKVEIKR
notes: IgG1 LALA

- MFI at 800 nM [3]: 151000 MFI
B32: Anti-CD3-C1-UCP01-H10 IgG1LALA (antibody, V domains shown)
VH: B22 VH with H54L, A58P, E59Q
VL: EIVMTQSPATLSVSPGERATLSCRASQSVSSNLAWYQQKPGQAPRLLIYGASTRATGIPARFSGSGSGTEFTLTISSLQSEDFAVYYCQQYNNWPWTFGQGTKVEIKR
notes: IgG1 LALA; also called anti-CD3-C1-H10

- MFI at 800 nM [3]: 151000 MFI
B33: Anti-CD3-C1-UCP02-E1 IgG1LALA (antibody, V domains shown)
VH: B22 VH with H54F, V55K
VL: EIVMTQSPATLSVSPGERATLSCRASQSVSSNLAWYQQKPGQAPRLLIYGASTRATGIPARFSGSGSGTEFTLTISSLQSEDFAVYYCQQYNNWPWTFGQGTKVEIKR
notes: IgG1 LALA

- MFI at 800 nM [3]: 81300 MFI
B34: Anti-CD3-C1-UCP01-F1 IgG1LALA (antibody, V domains shown)
VH: B22 VH with S52N, H54R, V55L, Y57Q
VL: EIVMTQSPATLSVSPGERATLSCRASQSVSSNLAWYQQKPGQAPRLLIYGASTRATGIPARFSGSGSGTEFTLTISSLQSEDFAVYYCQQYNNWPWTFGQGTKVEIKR
notes: IgG1 LALA

- MFI at 800 nM [3]: 52800 MFI
B35: Anti-CD3-C1-UCP01-D1 IgG1LALA (antibody, V domains shown)
VH: B22 VH with S52N, H54L, V55S, G56D, Y57E, E59Q
VL: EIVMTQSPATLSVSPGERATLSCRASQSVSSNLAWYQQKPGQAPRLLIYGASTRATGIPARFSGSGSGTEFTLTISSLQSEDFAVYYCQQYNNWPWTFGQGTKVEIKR
notes: IgG1 LALA

- MFI at 800 nM [3]: 109000 MFI
B36: Anti-CD3-C1-UCP01-B6 IgG1LALA (antibody, V domains shown)
VH: B22 VH with H54Y, V55Q, E59S
VL: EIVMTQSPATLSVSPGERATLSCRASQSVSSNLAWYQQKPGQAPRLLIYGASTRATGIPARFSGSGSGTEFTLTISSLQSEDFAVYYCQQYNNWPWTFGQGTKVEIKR
notes: IgG1 LALA

- MFI at 800 nM [3]: 178000 MFI
B37: Anti-CD3-C1-UCP01-D6 IgG1LALA (antibody, V domains shown)
VH: B22 VH with S52T, P53A, H54L, V55G, A58P, E59N
VL: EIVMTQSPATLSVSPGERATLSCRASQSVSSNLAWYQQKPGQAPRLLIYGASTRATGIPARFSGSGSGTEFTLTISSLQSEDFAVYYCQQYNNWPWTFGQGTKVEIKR
notes: IgG1 LALA; also called anti-CD3-C1-D6; C1-D6
